Experimental findings from patent US8361728B2, “Method for diagnosis of glutamate dehydrogenase disorders” (priority 2008, dated 2013) are described below.

Usually Km stands for the substrate concentration at which the rate is half of its maximum.

Chain of Ala445-hGDH2 (Homo sapiens; S498A) (chain, as listed by the source S498A): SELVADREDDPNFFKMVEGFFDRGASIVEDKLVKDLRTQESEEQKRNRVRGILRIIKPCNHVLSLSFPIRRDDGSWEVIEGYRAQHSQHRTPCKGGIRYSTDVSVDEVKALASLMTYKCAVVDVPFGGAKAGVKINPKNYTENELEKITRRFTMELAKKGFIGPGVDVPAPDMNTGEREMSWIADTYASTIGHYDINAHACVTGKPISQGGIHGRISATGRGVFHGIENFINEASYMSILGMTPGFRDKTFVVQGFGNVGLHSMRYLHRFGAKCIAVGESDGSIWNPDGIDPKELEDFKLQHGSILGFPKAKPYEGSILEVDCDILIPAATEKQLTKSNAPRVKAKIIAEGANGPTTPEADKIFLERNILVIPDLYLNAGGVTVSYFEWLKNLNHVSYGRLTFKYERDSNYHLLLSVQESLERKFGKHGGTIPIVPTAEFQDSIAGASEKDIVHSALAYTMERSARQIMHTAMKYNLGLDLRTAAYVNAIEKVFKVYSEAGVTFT
Chain of Ser445-hGDH2 (Homo sapiens) (chain, as listed by the source): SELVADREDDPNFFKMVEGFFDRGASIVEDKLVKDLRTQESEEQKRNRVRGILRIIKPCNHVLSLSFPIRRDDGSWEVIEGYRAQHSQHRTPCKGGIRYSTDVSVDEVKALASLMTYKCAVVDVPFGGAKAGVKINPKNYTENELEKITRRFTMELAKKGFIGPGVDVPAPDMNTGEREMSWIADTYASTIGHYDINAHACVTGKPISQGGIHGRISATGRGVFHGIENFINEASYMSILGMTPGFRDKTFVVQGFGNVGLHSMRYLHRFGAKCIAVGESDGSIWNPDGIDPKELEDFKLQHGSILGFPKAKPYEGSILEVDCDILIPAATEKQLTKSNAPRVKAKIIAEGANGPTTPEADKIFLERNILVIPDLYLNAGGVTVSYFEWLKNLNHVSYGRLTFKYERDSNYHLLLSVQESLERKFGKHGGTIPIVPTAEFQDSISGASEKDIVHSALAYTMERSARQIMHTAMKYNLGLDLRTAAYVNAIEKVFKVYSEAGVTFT

This data set concerns N. The data set is described as follows: purified protein, by the assay type.
For the substance hGDH1 (Homo sapiens), the Km worked out at 13.39 ± 0.72 mM.

For the substance Ser445-hGDH2 (Homo sapiens), the Km came out at 17.05 ± 2.01 mM. Then Ala445-hGDH2 (Homo sapiens; S498A), with 21.36 ± 3.56 mM.
